The data set concerns kinases of Table 6 on Myelin Basic Protein (MBP). Nature of the data set: Kinase assay using MBP substrate, ProQ Diamond stain (Table 6). Format: biochemical. The note with it: kinase printed on MBP-coated slide; 20 uM ATP, 30° C.; ProQ Diamond Microarray Stain; graded Strong/Weak/Negative. In a few lines:
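Bovine dephosphorylated MBP coated on aldehyde- or epoxy-glass slides, kinases printed on top; reaction buffer pH 7.5 with 4 mM MgCl2, 20 uM ATP, 5% DMSO, ± inhibitor, at 30° C. Phosphorylation detected by ProQ Diamond stain, 30 min in dark.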

B1: TAOK3(JIK) (protein)
chain: MRKGVLKDPEIADLFYKDDPEELFIGLHEIGHGSFGAVYFATNAHTSEVVAIKKMSYSGKQTHEKWQDILKEVKFLRQLKHPNTIEYKGCYLKEHTAWLVMEYCLGSASDLLEVHKKPLQEVEIAAITHGALHGLAYLHSHALIHRDIKAGNILLTEPGQVKLADFGSASMASPANSFVGTPYWMAPEVILAMDEGQYDGKVDIWSLGITCIELAERKPPLFNMNAMSALYHIAQNDSPTLQSNEWTDSFRRFVDYCLQKIPQERPTSAELLRHDFVRRDRPLRVLIDLIQRTKDAVRELDNLQYRKMKKILFQETRNGPLNESQEDEEDSEHGTSLNREMDSLGSNHSIPSMSVSTGSQSSSVNSMQEVMDESSSELVMMHDDESTINSSSSVVHKKDHVFIRDEAGHGDPRPEPRPTQSVQSQALHYRNRERFATIKSASLVTRQIHEHEQENELREQMSGYKRMRRQHQKQLIALENKLKAEMDEHRLKLQKEVETHANNSSIELEKLAKKQVAIIEKEAKVAAADEKKFQQQILAQQKKDLTTFLESQKKQYKICKEKIKEEMNEDHSTPKKEKQERISKHKENLQHTQAEEEAHLLTQQRLYYDKNCRFFKRKIMIKRHEVEQQNIREELNKKRTQKEMEHAMLIRHDESTRELEYRQLHTLQKLRMDLIRLQHQTELENQLEYNKRRERELHRKHVMELRQQPKNLKAMEMQIKKQFQDTCKVQTKQYKALKNHQLEVTPKNEHKTILKTLKDEQTRKLAILAEQYEQSINEMMASQALRLDEAQEAECQALRLQLQQEMELLNAYQSKIKMQTEAQHERELQKLEQRVSLRRAHLEQKIEEELAALQKERSERIKNLLERQEREIETFDMESLRMGFGNLVTLDFPKEDYR
modifications: left off: a dimerising Fc or GST
B1: the “MBP Kinase Activity” value is “Strong”.

B2: TAOK2(TAO1) (protein)
chain: MPAGGRAGSLKDPDVAELFFKDDPEKLFSDLREIGHGSFGAVYFARDVRNSEVVAIKKMSYSGKQSNEKWQDIIKEVRFLQKLRHPNTIQYRGCYLREHTAWLVMEYCLGSASDLLEVHKKPLQEVEIAAVTHGALQGLAYLHSHNMIHRDVKAGNILLSEPGLVKLGDFGSASIMAPANSFVGTPYWMAPEVILAMDEGQYDGKVDVWSLGITCIELAERKPPLFNMNAMSALYHIAQNESPVLQSGHWSEYFRNFVDSCLQKIPQDRPTSEVLLKHRFVLRERPPTVIMDLIQRTKDAVRELDNLQYRKMKK
modifications: left off: a dimerising Fc or GST
Take B2: the “MBP Kinase Activity” value is reported as “Strong”.

B3: SGKL(SGK3) (protein, UniProt Q96BR1 1-496, looked up)
Serine/threonine-protein …: MQRDHTMDYKESCPSVSIPSSDEHREKKKRFTVYKVLVSVGRSEWFVFRRYAEFDKLYNTLKKQFPAMALKIPAKRIFGDNFDPDFIKQRRAGLNEFIQNLVRYPELYNHPDVRAFLQMDSPKHQSDPSEDEDERSSQKLHSTSQNINLGPSGNPHAKPTDFDFLKVIGKGSFGKVLLAKRKLDGKFYAVKVLQKKIVLNRKEQKHIMAERNVLLKNVKHPFLVGLHYSFQTTEKLYFVLDFVNGGELFFHLQRERSFPEHRARFYAAEIASALGYLHSIKIVYRDLKPENILLDSVGHVVLTDFGLCKEGIAISDTTTTFCGTPEYLAPEVIRKQPYDNTVDWWCLGAVLYEMLYGLPPFYCRDVAEMYDNILHKPLSLRPGVSLTAWSILEELLEKDRQNRLGAKEDFLEIQNHPFFESLSWADLVQKKIPPPFNPNVAGPDDIRNFDTAFTEETVPYSVCVSSDYSIVNASVLEADDAFVGFSYAPPSEDLFL
Turning to B3, the “MBP Kinase Activity” value is given as “Weak”.

B4: STK22D(TSSK1) (protein)
chain: MDDAAVLKRRGYLLGINLGEGSYAKVKSAYSERLKFNVAIKIIDRKKAPADFLEKFLPREIEILAMLNHCSIIKTYEIFETSHGKVYIVMELAVQGDLLELIKTRGALHEDEARKKFHQLSLAIKYCHDLDVVHRDLKCDNLLLDKDFNIKLSDFSFSKRCLRDDSGRMALSKTFCGSPAYAAPEVLQGIPYQPKVYDIWSLGVILYIMVCGSMPYDDSNIKKMLRIQKEHRVNFPRSKHLTGECKDLIYHMLQPDVNRRLHIDEILSHCWMQPKARGSPSVAINKEGESSRGTEPLWTPEPGSDKKSATKLEPEGEAQPQAQPETKPEGTAMQMSRQSEILGFPSKPSTMETEEGPPQQPPETRAQ
modifications: left off: small tags and cut ends
On to B4, for which the “MBP Kinase Activity” value is “Strong”.

B5: FGFR2 (protein)
chain: RMKNTTKKPDFSSQPAVHKLTKRIPLRRQVTVSAESSSSMNSNTPLVRITTRLSSTADTPMLAGVSEYELPEDPKWEFPRDKLTLGKPLGEGCFGQVVMAEAVGIDKDKPKEAVTVAVKMLKDDATEKDLSDLVSEMEMMKMIGKHKNIINLLGACTQDGPLYVIVEYASKGNLREYLRARRPPGMEYSYDINRVPEEQMTFKDLVSCTYQLARGMEYLASQKCIHRDLAARNVLVTENNVMKIADFGLARDINNIDYYKKTTNGRLPVKWMAPEALFDRVYTHQSDVWSFGVLMWEIFTLGGSPYPGIPVEELFKLLKEGHRMDKPANCTNELYMMMRDCWHAVPSQRPTFKQLVEDLDRILTLTTNEEYLDLSQPLEQYSPSYPDTRSSCSSGDDSVFSPDPMPYEPCLPQYPHINGSVKT
modifications: left off: small tags and cut ends
In the case of B5, the “MBP Kinase Activity” value is given as “Strong”.

B6: SRPK2 (protein)
chain: MSSRKVLAIQARKRRPKREKHPKKPEPQQKAPLVPPPPPPPPPPPPPLPDPTPPEPEEEILGSDDEEQEDPADYCKGGYHPVKIGDLFNGRYHVIRKLGWGHFSTVWLCWDMQGKRFVAMKVVKSAQHYTETALDEIKLLKCVRESDPSDPNKDMVVQLIDDFKISGMNGIHVCMVFEVLGHHLLKWIIKSNYQGLPVRCVKSIIRQVLQGLDYLHSKCKIIHTDIKPENILMCVDDAYVRRMAAEATEWQKAGAPPPSGSAVSTAPQQKPIGKISKNKKKKLKKKQKRQAELLEKRLQEIEELEREAERKIIEENITSAAPSNDQDGEYCPEVKLKTTGLEEAAEAETAKDNGEAEDQEEKEDAEKENIEKDEDDVDQELANIDPTWIESPKTNGHIENGPFSLEQQLDDEDDDEEDCPNPEEYNLDEPNAESDYTYSSSYEQFNGELPNGRHKIPESQFPEFSTSLFSGSLEPVACGSVLSEGSPLTEQEESSPSHDRSRTVSASSTGDLPKAKTRAADLLVNPLDPRNADKIRVKIADLGNACWVHKHFTEDIQTRQYRSIEVLIGAGYSTPADIWSTACMAFELATGDYLFEPHSGEDYSRDEDHIAHIIELLGSIPRHFALSGKYSREFFNRRGELRHITKLKPWSLFDVLVEKYGWPHEDAAQFTDFLIPMLEMVPEKRASAGECLRHPWLNS
modifications: left off: a dimerising Fc or GST
As to B6, the “MBP Kinase Activity” value is reported as “Strong”.

B7: TTK (protein)
chain: MESEDLSGRELTIDSIMNKVRDIKNKFKNEDLTDELSLNKISADTTDNSGTVNQIMMMANNPEDWLSLLLKLEKNSVPLSDALLNKLIGRYSQAIEALPPDKYGQNESFARIQVRFAELKAIQEPDDARDYFQMARANCKKFAFVHISFAQFELSQGNVKKSKQLLQKAVERGAVPLEMLEIALRNLNLQKKQLLSEEEKKNLSASTVLTAQESFSGSLGHLQNRNNSCDSRGQTTKARFLYGENMPPQDAEIGYRNSLRQTNKTKQSCPFGRVPVNLLNSPDCDVKTDDSVVPCFMKRQTSRSECRDLVVPGSKPSGNDSCELRNLKSVQNSHFKEPLVSDEKSSELIITDSITLKNKTESSLLAKLEETKEYQEPEVPESNQKQWQSKRKSECINQNPAASSNHWQIPELARKVNTEQKHTTFEQPVFSVSKQSPPISTSKWFDPKSICKTPSSNTLDDYMSCFRTPVVKNDFPPACQLSTPYGQPACFQQQQHQILATPLQNLQVLASSSANECISVKGRIYSILKQIGSGGSSKVFQVLNEKKQIYAIKYVNLEEADNQTLDSYRNEIAYLNKLQQHSDKIIRLYDYEITDQYIYMVMECGNIDLNSWLKKKKSIDPWERKSYWKNMLEAVHTIHQHGIVHSDLKPANFLIVDGMLKLIDFGIANQMQPDTTSVVKDSQVGTVNYMPPEAIKDMSSSRENGKSKSKISPKSDVWSLGCILYYMTYGKTPFQQIINQISKLHAIIDPNHEIEFPDIPEKDLQDVLKCCLKRDPKQRISIPELLAHPYVQIQTHPVNQMAKGTTEEMKYVLGQLVGLNSPNSILKAAKTLYEHYSGGESHNSSSSKTFEKKRGKK
modifications: left off: a dimerising Fc or GST
For the molecule B7, the “MBP Kinase Activity” value is reported as “Negative”.

B8: STK22B(TSSK2) (protein)
chain: MDDATVLRKKGYIVGINLGKGSYAKVKSAYSERLKFNVAVKIIDRKKTPTDFVERFLPREMDILATVNHGSIIKTYEIFETSDGRIYIIMELGVQGDLLEFIKCQGALHEDVARKMFRQLSSAVKYCHDLDIVHRDLKCENLLLDKDFNIKLSDFGFSKRCLRDSNGRIILSKTFCGSAAYAAPEVLQSIPYQPKVYDIWSLGVILYIMVCGSMPYDDSDIRKMLRIQKEHRVDFPRSKNLTCECKDLIYRMLQPDVSQRLHIDEILSHSWLQPPKPKATSSASFKREGEGKYRAECKLDTKTGLRPDHRPDHKLGAKTQHRLLVVPENENRMEDRLAETSRAKDHHISGAEVGKAST
modifications: left off: small tags and cut ends
Take B8: the “MBP Kinase Activity” value is reported as “Negative”.

B9: FGFR3 (protein)
chain: RLRSPPKKGLGSPTVHKISRFPLKRQVSLESNASMSSNTPLVRIARLSSGEGPTLANVSELELPADPKWELSRARLTLGKPLGEGCFGQVVMAEAIGIDKDRAAKPVTVAVKMLKDDATDKDLSDLVSEMEMMKMIGKHKNIINLLGACTQGGPLYVLVEYAAKGNLREFLRARRPPGLDYSFDTCKPPEEQLTFKDLVSCAYQVARGMEYLASQKCIHRDLAARNVLVTEDNVMKIADFGLARDVHNLDYYKKTTNGRLPVKWMAPEALFDRVYTHQSDVWSFGVLLWEIFTLGGSPYPGIPVEELFKLLKEGHRMDKPANCTHDLYMIMRECWHAAPSQRPTFKQLVEDLDRVLTVTSTDEYLDLSAPFEQYSPGGQDTPSSSSSGDDSVFAHDLLPPAPPSSGGSRT
modifications: left off: small tags and cut ends
Consider B9, for which the “MBP Kinase Activity” value was “Strong”.

B10: STK17A(DRAK1) (protein)
chain: MIPLEKPGSGGSSPGATSGSGRAGRGLSGPCRPPPPPQARGLLTEIRAVVRTEPFQDGYSLCPGRELGRGKFAVVRKCIKKDSGKEFAAKFMRKRRKGQDCRMEIIHEIAVLELAQDNPWVINLHEVYETASEMILVLEYAAGGEIFDQCVADREEAFKEKDVQRLMRQILEGVHFLHTRDVVHLDLKPQNILLTSESPLGDIKIVDFGLSRILKNSEELREIMGTPEYVAPEILSYDPISMATDMWSIGVLTYVMLTGISPFLGNDKQETFLNISQMNLSYSEEEFDVLSESAVDFIRTLLVKKPEDRATAEECLKHPWLTQSSIQEPSFRMEKALEEANALQEGHSVPEINSDTDKSETKESIVTEELIVVTSYTLGQCRQSEKEKMEQKAISKRFKFEEPLLQEIPGEFIY
modifications: left off: a dimerising Fc or GST
For the molecule B10, the “MBP Kinase Activity” value was “Negative”.

The values above are taken from US20090099029A1, “Methods and substrates for conducting assays” (Invitrogen Corporation, priority 2005, published 2009).
